[ ]: non-standard residue; d: D form. Sec = N[C@@H](C[SeH])C(=O)O
Substrate: O=C1NC(=O)C(=O)C(=O)N1
Assay: Substrate specificity, NADPH consumption, wild-type TGR
Format: biochemical, Schistosoma mansoni
Conditions: pH 7.4; 25.0 °C

B1: wild-type TGR (SmTGR) (Schistosoma mansoni) (protein)
chain: MPPADGTSQWLRKTVDSAAVILFSKTTCPYCKKVKDVLAEAKIKHATIELDQLSNGSAIQKCLASFSKIETVPQMFVRGKFIGDSQTVLKYYSNDELAGIVNESKYDYDLIVIGGGSGGLAAGKEAAKYGAKTAVLDYVEPTPIGTTWGLGGTCVNVGCIPKKLMHQAGLLSHALEDAEHFGWSLDRSKISHNWSTMVEGVQSHIGSLNWGYKVALRDNQVTYLNAKGRLISPHEVQITDKNQKVSTITGNKIILATGERPKYPEIPGAVEYGITSDDLFSLPYFPGKTLVIGASYVALECAGFLASLGGDVTVMVRSILLRGFDQQMAEKVGDYMENHGVKFAKLCVPDEIKQLKVVDTENNKPGLLLVKGHYTDGKKFEEEFETVIFAVGREPQLSKVLCETVGVKLDKNGRVVCTDDEQTTVSNVYAIGDINAGKPQLTPVAIQAGRYLARRLFAGATELTDYSNVATTVFTPLEYGACGLSEEDAIEKYGDKDIEVYHSNFKPLEWTVAHREDNVCYMKLVCRKSDNMRVLGLHVLGPNAGEITQGYAVAIKMGATKADFDRTIGIHPTCSETFTTLHVTKKSGVSPIVSGC[Sec]G
modifications: not fully specified
  Km: 940 ± 90 µM
  kcat: 27.7 ± 0.8 s⁻¹

Source: publication PMC3658134
